According to patent publication US20220195055A1 (SHANDONG BOAN BIOTECHNOLOGY, published 2022):
Read-outs that look alike come from different tables or passages of the source.

Experiments:
[1] = target: T1, CD25 protein (Sino Biological, 10165-H08H) (UniProt P01589 22-213); assay: SPR (BIAcore 8K); antibody captured by anti-human IgG Fc, CD25 protein as analyte, 1:1 model
T1 construct: Bought recombinant protein; It speaks elsewhere of human CD25; also called antigen CD25; IL-2Rα
T1 sequence (looked up): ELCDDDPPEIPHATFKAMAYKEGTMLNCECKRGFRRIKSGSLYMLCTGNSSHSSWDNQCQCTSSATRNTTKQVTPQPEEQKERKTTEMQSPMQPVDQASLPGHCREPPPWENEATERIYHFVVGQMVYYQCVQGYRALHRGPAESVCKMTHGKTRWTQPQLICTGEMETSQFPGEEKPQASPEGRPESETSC
Procedure: Antibody binding kinetics uses BIAcore8K instrument based on surface plasmon resonance (SRP) technology to measure. Anti-human IgG antibody amino was coupled to a CMS biosensor chip by the GE anti Human IgG Fc amino coupling kit (GE, cat # BR-1008-39) to obtain approximately 1000 response units (RU). For kinetic measurements, the CD25 protein (Sino Biological, 10165-H08H) was diluted 2-fold continuously with HBS-EP+1×(GE, BR-1008-26) buffer, starting at 50 nM, being diluted 2-fold for 4 concentration gradients and setting 0 concentration. The antibody to be detected: 2 μg/ml, sample injection time 70 s, flow rate 5 μL/min, stable for 5 s; CD25 protein: binding for 60 s, flow rate 30 μL/min, dissociation for 450 s; regeneration: regeneration was performed for 30 s with 3M MgCl₂ buffer, Startup 3 times. The association constant (ka) and dissociation constant (kd) were calculated using a simple one-to-one Languir binding model (BIAcore Evaluation Software version 3.2), and the equilibrium dissociation constant (KD) was calculated by the ratio kd/ka.

[2] = target: T1, CD25 protein (Sino Biological, …); assay: ELISA; CD25 protein coated in a dilution series, antibody at one fixed concentration, anti-human IgG/HRP
Text: (§1) The results are shown in FIG. 2A to FIG. 2E and Table 2 to Table 6.

[3] = target: T2, CD25 on cells (SU-DHL-1 target cells; PBMC) (UniProt P01589 22-272, limits assumed); assay: cell-based or functional assay
T2 sequence (looked up): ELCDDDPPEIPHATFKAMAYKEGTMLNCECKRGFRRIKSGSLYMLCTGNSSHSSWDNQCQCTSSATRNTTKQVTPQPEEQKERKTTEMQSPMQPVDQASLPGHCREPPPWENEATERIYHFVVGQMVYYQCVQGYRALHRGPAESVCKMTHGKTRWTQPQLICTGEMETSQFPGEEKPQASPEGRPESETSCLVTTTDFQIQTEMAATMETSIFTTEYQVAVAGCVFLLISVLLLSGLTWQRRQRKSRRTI

[4] = target: T1, CD25 protein (Sino Biological, …); assay: ELISA; CD25 protein coated in a dilution series, antibody at one fixed concentration, anti-human IgG/HRP; remark: listed apart in the source
Text: as §1

[5] = target: T2, CD25 on cells (SU-DHL-1 target cells; …); assay: cell-based or functional assay; remark: listed apart in the source
[6] = target: T1, CD25 protein (Sino Biological, …); assay: ELISA; CD25 protein coated in a dilution series, antibody at one fixed concentration, anti-human IgG/HRP; remark: listed apart in the source
Text: as §1

[7] = target: T1, CD25 protein (Sino Biological, …); assay: as above; remark: listed apart in the source
Text: as §1

Binder	Kd [1] [nM]	koff [1] [s⁻¹]	kon [1] [M⁻¹ s⁻¹]	EC50 [2] [ng/mL]	EC50 of simulated killing activity (Jurkat effector reporter cells, SU-DHL-1 target cells, luminescence) [3] [ng/mL]	EC50 [4] [ng/mL]	EC50 of simulated killing activity (Jurkat effector reporter cells, SU-DHL-1 target cells, luminescence) [5] [ng/mL]	EC50 [6] [ng/mL]	EC50 [7] [ng/mL]
CD25Q11-CA36-IgG1 (antibody, V domains shown, IgG1 expressed in HEK293) VH: QVQLVQSGAEVKQPGSSVKVSCKTSGGTFGSSAINWVRQAPGQGLEWMGRIIPIFGVSNFAQKFQGRVTITADKSTNTAYMELSSLRSEDTAVYYCARDGSGYDSNYWYFDLWGRGTLVTVSS VL: not shown	1.61	9.66e-05	60200	2.41	–	–	–	–	–
CD25Q14-BA443-IgG1 (antibody, V domains shown, IgG1 expressed in HEK293) VH: EVQLVQSGAEVKKPGESLKISCKGSGYSFSNYWIGWVRQMPGKGLEWMGIISPGDSTTKYSPSFQGQVTFSADKSTSTAYLQWSSLQASDTAMYYCVRGPYYLDYWGQGTLVTVSS VL: DIQMTQSPSTLSASVGDRVTITCRASQSVSGYLAWYQQKPGKAPKLLIYKTSSLESGVPSRFSGSGSGTDFTLTISSLQAEDVAVYYCQQYYSTPWTFGQGTKVEIKR	1.48	0.000201	136000	–	360	1.06	–	–	–
CD25Q14-BA458-IgG1 (antibody, V domains shown, IgG1 expressed in HEK293) VH: EVQLVQSGAEVKKPGESLKISCKGSGYSFSNYWIGWVRQMPGKGLEWMGIISPGDSTTKYSPSFQGQVTFSADKSTSTAYLQWSSLQASDTAMYYCVRGPYYLDYWGQGTLVTVSS VL: not shown	0.596	0.000216	362000	–	266	1	–	–	–
CD25Q11-BA428-IgG1 (antibody, V domains shown, IgG1 expressed in HEK293) VH: QVQLVQSGAEVKKPGESLKISCKGSGYSFTNYWIVWVRQMPGKGLEWMGIISPGDSTTRYSPSFQGQVTFSADKSISTAYLQWSSLKASDTAMYYCAIGPYYLEYWGQGTLVTVSS VL: not shown	0.379	0.00021	555000	–	–	0.597	217	–	–
CD25Q14-CA721-IgG1 (antibody, V domains shown, IgG1 expressed in HEK293) VH: QVQLVQSGAEVKKPGESLKISCKGSGYSFANYWIVWVRQMPGKGLEWMGIIYPDDSETRYSPSFQGQVTFSADKSISTAYLQWSSLKASDTAMYYCTRGPYYSDYWGQGTLVTVSS VL: not shown	0.536	0.000365	680000	–	288	–	–	3.25	–
CD25Q3-BA125-IgG1 (antibody, V domains shown, IgG1; also called CD25Q2-BA125) VH: EVQLVQSGAEVKKPGESLKISCKGSGYSFANYWIVWVRQMPGKGLEWMGIIYPDDSETRYSPSFQGQVTFSADKSISTAYLQWSSLKASDTAMYYCTRGPYYSDYWGQGTLVTVSS VL: DIQMTQSPSTLSASVGDRVTITCRASQIISGYLAWYQQKPGKAPKLLIYKASSLESGVPSRFSGSGSGAEFTLTISSLQPDDFATYYCQQYNSYTWTFGQGTKVEIKR	0.431	0.000301	699000	–	–	–	251	–	1.61
CD25Q14-CA705-IgG1 (antibody, V domains shown, IgG1 expressed in HEK293) VH: EVQLVQSGAEVKKPGESLKISCKGSGYSFANYWIVWVRQMPGKGLEWMGIIYPDDSETRYSPSFQGQVTFSADKSISTAYLQWSSLKASDTAMYYCTRGPYYSDYWGQGTLVTVSS VL: DIQMTQSPSTLSASVGDRVSITCRASQSIGSWLAWYQQKPGKAPKLLIFEASNLESGVPSRFSGSGSGTEFTLTISNLQPDDFATYYCQQYNSYSLTFGGGTKVEIKR	1.97	0.000752	381000	4.77	–	–	409	–	–
